Experimental findings from paper PMC10667097, “Activity-based profiling of cullin–RING E3 networks by conformation-specific probes” (Nature Chemical Biology, 2023) are described below.

In assay [1] the target is T1, neddylated CUL2 (endogenous) (human (endogenous in 293T), UniProt Q13617;Q15843, NEDD8-modified | linked to the cullin).
T1 construct: CUL2, human; NEDD8, human, the conjugated form; also called NEDD8-linked CUL2; source: endogenous, 293T lysate
Kind of assay: affinity purification with mass spectrometry; IPs with biotinylated N8C_Fab3b on streptavidin beads from lysates of human cells (293T, K562, panel of ten lines), N8-block; cells treated with DMSO, MLN4924, CSN5i-3, Indisulam, MZ1, ferric ammonium citrate or TNF (with MG132 and CB-5083 before stimuli); DIA MS. Particulars: one partner purified.

Assay [2] addresses T2, neddylated CUL3 (endogenous) (human (endogenous in K562, 293T), UniProt Q13618;Q15843, NEDD8-modified | linked to the cullin).
T2 construct: CUL3, human; NEDD8, human, the conjugated form; also called NEDD8-linked CUL3; source: endogenous, K562 lysate; endogenous, 293T lysate
Kind of assay: co-IP; biotinylated Fab on streptavidin magnetic beads, K562 lysates (cells treated with DMSO, MLN4924 or CSN5i-3; N8-block), 45 min at 4 °C, immunoblotting. Particulars: one partner purified. Background: A western blot detects proteins with antibodies after separation by electrophoresis.

Assay [3] deals with T3, neddylated CUL1 C-terminal region bound to RBX1 (Homo sapiens, UniProt Q13616;P62877;Q15843, L421E | V451E | V452K | Y455K, NEDD8 linked to a specific site in the WHB subdomain | C-terminus linked to the cullin (isopeptide)).
T3 construct: CUL1, human, C-terminal region residues 411-776 with solubilizing substitutions; RBX1, human; NEDD8, human, the conjugated form; also called neddylated CUL1–RBX1; source: neddylated in vitro; not shown: MBP, N-terminal, cleaved; GST, N-terminal, cleaved; copies: + +
Description: ELISA; proteins (2 µg/ml) coated on 384-well MaxiSorp plates overnight at 4 °C; Fab titrated (Fig. 1c at 50 nM Fab); detected with anti-M13-HRP (phage) or anti-Kappa-HRP (protein); EC50 by nonlinear regression; the results call the Fabs phage-displayed, the methods give EC50 for purified Fab proteins. The settings on record: both partners purified.

Assay [4] has as its target T4, purified recombinant CUL3 modified by NEDD8 (band on the immunoblot) (Homo sapiens, UniProt Q13618;Q15843, NEDD8 linked to a specific site in the WHB subdomain | C-terminus linked to the cullin (isopeptide)).
T4 construct: CUL3, human; NEDD8, human, the conjugated form; Resolved by SDS-PAGE, so RBX1 is not in the band; also called neddylated CUL3–RBX1; source: recombinant, purified, neddylated in vitro; not shown: GST, N-terminal, cleaved
Kind of assay: far-Western, overlay or dot blot; 200 ng neddylated or unneddylated recombinant CUL1-5 after SDS-PAGE on PVDF; 2 µg/ml biotinylated Fab as primary binder, Streptavidin-HRP. Particulars: both partners purified.

T2 sequence (Q13618 whole entry, chain 1 of 2): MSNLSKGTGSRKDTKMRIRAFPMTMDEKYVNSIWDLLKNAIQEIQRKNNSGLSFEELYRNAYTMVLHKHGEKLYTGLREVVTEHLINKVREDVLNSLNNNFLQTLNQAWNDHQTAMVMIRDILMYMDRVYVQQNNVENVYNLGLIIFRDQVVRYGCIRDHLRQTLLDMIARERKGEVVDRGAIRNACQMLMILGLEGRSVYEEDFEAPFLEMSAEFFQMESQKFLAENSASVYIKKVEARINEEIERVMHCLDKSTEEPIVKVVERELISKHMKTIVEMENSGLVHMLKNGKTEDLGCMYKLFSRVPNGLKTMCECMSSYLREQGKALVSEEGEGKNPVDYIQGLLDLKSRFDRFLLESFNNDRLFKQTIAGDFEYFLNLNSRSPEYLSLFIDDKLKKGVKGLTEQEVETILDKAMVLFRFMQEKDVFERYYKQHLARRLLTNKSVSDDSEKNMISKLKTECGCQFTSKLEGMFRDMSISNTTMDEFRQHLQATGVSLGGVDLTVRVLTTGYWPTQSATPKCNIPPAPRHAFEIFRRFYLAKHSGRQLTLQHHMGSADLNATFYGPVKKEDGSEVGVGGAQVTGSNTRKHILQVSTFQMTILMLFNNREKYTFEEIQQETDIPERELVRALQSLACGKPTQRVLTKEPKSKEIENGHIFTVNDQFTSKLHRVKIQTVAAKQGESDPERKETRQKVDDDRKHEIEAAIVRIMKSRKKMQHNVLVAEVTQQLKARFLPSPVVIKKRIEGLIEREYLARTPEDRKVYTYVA
T2 sequence (Q15843 1-76, chain 2 of 2): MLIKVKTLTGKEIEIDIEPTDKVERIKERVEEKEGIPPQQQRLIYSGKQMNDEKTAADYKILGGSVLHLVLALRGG
T4 sequence (Q13618 whole entry, chain 1 of 2): as the sequence (Q13618 whole entry, chain 1 of 2) above
T4 sequence (Q15843 1-76, chain 2 of 2): as the sequence (Q15843 1-76, chain 2 of 2) above
T1 sequence (Q13617 whole entry, chain 1 of 2): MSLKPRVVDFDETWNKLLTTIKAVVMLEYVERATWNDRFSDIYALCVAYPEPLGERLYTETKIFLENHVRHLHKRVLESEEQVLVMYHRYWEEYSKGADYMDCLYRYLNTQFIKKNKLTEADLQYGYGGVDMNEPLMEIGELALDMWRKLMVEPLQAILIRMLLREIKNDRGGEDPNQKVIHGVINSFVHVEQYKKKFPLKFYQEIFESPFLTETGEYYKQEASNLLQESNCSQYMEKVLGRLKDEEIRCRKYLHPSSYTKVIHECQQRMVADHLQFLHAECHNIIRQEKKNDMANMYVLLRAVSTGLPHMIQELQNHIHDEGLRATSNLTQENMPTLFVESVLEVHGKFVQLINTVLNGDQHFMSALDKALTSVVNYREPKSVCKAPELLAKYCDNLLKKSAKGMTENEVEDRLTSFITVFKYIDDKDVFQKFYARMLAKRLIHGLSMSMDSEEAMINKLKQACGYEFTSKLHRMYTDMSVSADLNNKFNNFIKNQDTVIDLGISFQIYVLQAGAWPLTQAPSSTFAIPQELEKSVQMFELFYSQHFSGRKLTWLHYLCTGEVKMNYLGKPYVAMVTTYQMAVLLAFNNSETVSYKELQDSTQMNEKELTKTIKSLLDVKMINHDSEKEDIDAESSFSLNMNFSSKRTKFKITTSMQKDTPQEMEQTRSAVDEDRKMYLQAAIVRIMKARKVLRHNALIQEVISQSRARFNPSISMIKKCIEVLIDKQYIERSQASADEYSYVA
T1 sequence (Q15843 1-76, chain 2 of 2): as the sequence (Q15843 1-76, chain 2 of 2) above
T3 sequence (Q13616 411-776 L421E/V451E/V452K/Y455K, chain 1 of 3): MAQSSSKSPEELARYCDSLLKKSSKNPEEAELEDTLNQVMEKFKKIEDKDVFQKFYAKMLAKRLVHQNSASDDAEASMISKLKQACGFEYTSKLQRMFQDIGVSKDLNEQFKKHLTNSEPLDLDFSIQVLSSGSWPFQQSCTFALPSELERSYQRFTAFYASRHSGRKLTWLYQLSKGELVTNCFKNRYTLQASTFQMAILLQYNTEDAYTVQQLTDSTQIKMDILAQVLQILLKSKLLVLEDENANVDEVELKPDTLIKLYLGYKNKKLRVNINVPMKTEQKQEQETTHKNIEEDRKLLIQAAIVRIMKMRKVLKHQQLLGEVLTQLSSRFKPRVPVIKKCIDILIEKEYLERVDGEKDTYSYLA
T3 sequence (P62877 whole entry, chain 2 of 3, the tested form may be a part): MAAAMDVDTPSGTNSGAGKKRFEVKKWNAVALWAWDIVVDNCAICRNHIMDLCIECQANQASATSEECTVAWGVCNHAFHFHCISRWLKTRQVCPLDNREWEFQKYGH
T3 sequence (Q15843 1-76, chain 3 of 3): as the sequence (Q15843 1-76, chain 2 of 2) above

B1: N8C_Fab3b, biotinylated (Fab, V domains shown)
VH: EVQLVESGGGLVQPGGSLRLSCAASGFNFSSSSIHWVRQAPGKGLEWVASISSSYGYTYYADSVKGRFTISADTSKNTAYLQMNSLRAEDTAVYYCARDPFGWAAHGVGLDYWGQGTLVTVSS
VL: DIQMTQSPSSLSASVGDRVTITCRASQSVSSAVAWYQQKPGKAPKLLIYSASSLYSGVPSRFSGSRSGTDFTLTISSLQPEDFATYYCQQSSYSLITFGQGTKVEIK
notes: as the heavy chain of m5; as the light chain of m5; GS linker between the heavy chain and the AviTag-His6 tag; Held on streptavidin beads in the IPs; source: E. coli Rosetta (DE3), purified, biotinylated in vitro with BirA; not shown: AviTag, C-terminal, kept
For the molecule B1, the binding result in assay [1] and in assay [2] was “binds” each time.

B2: N8C_Fab4a (Fab, V domains shown)
VH: EVQLVESGGGLVQPGGSLRLSCAASGFNLSYYSMHWVRQAPGKGLEWVASISPYYSYTYYADSVKGRFTISADTSKNTAYLQMNSLRAEDTAVYYCARSHWASYYAGAFDYWGQGTLVTVSS
VL: DIQMTQSPSSLSASVGDRVTITCRASQSVSSAVAWYQQKPGKAPKLLIYSASSLYSGVPSRFSGSRSGTDFTLTISSLQPEDFATYYCQQGYAFWHPITFGQGTKVEIK
As to B2, the “fold higher EC50 than N8C_Fab1b” value in assay [3] was roughly 3 fold.

B3: N8C_Fab4a, biotinylated (Fab, V domains shown)
VH: EVQLVESGGGLVQPGGSLRLSCAASGFNLSYYSMHWVRQAPGKGLEWVASISPYYSYTYYADSVKGRFTISADTSKNTAYLQMNSLRAEDTAVYYCARSHWASYYAGAFDYWGQGTLVTVSS
VL: DIQMTQSPSSLSASVGDRVTITCRASQSVSSAVAWYQQKPGKAPKLLIYSASSLYSGVPSRFSGSRSGTDFTLTISSLQPEDFATYYCQQGYAFWHPITFGQGTKVEIK
notes: as the heavy chain of m6; as the light chain of m6; GS linker between the heavy chain and the AviTag-His6 tag; source: E. coli Rosetta (DE3), purified, biotinylated in vitro with BirA; not shown: AviTag, C-terminal, kept
Take B3: the binding result in assay [4] and in assay [2] was “binds” in each case.
